Measured values reported in the DeepSol protein solubility set.

test: soluble on expression in E. coli; label from the status in PepcDB or PDB records

Sequence	soluble on expression in E. coli
MGSDKIHHHHHHACTGLLVGKKASTDGSVMISYAADSHSLYGEMYRWPAATWPKGAMLEVKEWDTGKPLGKIAQVENTYSVVGNMNEHQVAITESTFGGRHELVDTTGIMDYGSLIYIALQRSKSAREAIKVMTDLVKEYGYYSSGETFSIADKNEAWVMEMIGKGPGNKGAVWVAIRIPDDCISAHANQSRIQQIPFDDKENCIYSPDVVSFAREKGYFKGKDADFSFAKAYCPYDFSALRGCEARVWSFFRKYDTTMDQYTDFIKGDPSKEPMPLYVKPNRKLSVQDVQNGMRDHYEGTDLDMTKDAGAGSYKVPYRWRPMTFEVDGQEYTNERAIATQQTGFVIVPQMRNWLPDAIGGILWFAVDDADMAVFTPVYASVTDVPECYRVGNGDLLNFSWTSAFWIHNWVANMAYHKYSFMIQDIRKVQQELENGYQETVPAIDKAAQELYAKDPAETVKFLTWYSTTNSDSATARWKQLGEYLLVKYIDGNVKKEVNGQFKRNPYGQPASPDFPGYDEDYYRSIVKSAGDRLKVK	not soluble
MAEKSYTRFVINGKEQELKFCLQALRLLDENGGPMQFVSQTMQGGITNFTDVVYYALIHTNEGITYEAVQKEIENMFNAEKLDLDEILKYNKAVVLNSFFFQKTVKKLLGTMTAEQQKSFENLYA	not soluble
MGSDKIHHHHHHMTLGTKLSVDQEYLKSFSEKHQEPAWLKNLRLQALEQAEDLPMPKPDKTKITNWNFTNFAKHTVDNEPLSSLEDLTDEVKALIDIENEDKTLYVQRDQTPAHLSLSQELKDKGVIFTDILTAAREHSDLVEKYFMKDGVKVDEHKLTALHAALVNGGAFLYVPKNVQVETPVQAVYVHESNDTALFNHVLIVAEDHSSVTYVENYISTVNPKDAVFNIISEVITGDNASVTYGAVDNLSSGVTTYVNRRGAARGRDSKIEWALGLMNDGDTISENTTNLYGDGTYGDTKTVVVGRGEQTENFTTQIIHFGKASEGYILKHGVMKDSASSIFNGIGKIEHGASKANAEQESRVLMLSEKARGDANPILLIDEDDVTAGHAASVGRVDPIQLYYLMSRGIPKEEAERLVIYGFLAPVVNELPIEGVKKQLVSVIERKVK	not soluble
MKFDDSKPIYKQIVHYIHTEIVTGTYEAGDKLLSVRELATKLEVNPTTIQRAYAELEEAGIIFTVRGTGKYLTEDKRRIEQLENHIAKQLTENFISEMSKLGINKEKIIAWVKKVEEVEVNASGK	not soluble
MGSDKIHHHHHHMAAQNAFEQKKRAILNEIDSTQPDLSPKGTIDELCLPIIDLINASADMVTTSSCSGRVSVFLEGTKSYNGEVKIGGKGQGGKWLYVTHDREKVIGWLDELKSKSEFSFELSGKEIPTEKVTGSIRYILYKYEPFILHVKCRDFQAASKLYNTAMSCGFRESGIGSNNLVAIRINIKLDVPLGYLDETSGTLKFFVTPEYVSVLDSLSLSKFDENTRKMQALYDRIEKELINCAPDVNSKVNITPIETKEERRERKKREGMERQRQLKSPQNVL	not soluble
MGSDKIHHHHHHMRAPKISEGKINCKEDDNLKLTVLVDNNTILSNNPHFQDRYFLSEPGLSIFIEADGKKVLFDTGHTGIFLQNSEKMNLDLSDLDYLVLSHGHIDHTGGLKSLIDFYQNQGKTNLKDKPTLIAHPECFLSKIDSPWGEIGCGIPEAEITCHFQLQLSREPLWLTENLVFLGEIERSNDFENLTPLGKVHKNTEGQDDYILDDSALVYKGSKGLIIITGCSHAGICNITKYAQKVCRDERVIDIIGGLHLINPGPIQMEKTKEFLKNVAPQTIRACHCTSLRPKIALAESLNMEEVGTGLQLEYY	not soluble
MSLLSVKQSSINEDHNNWDFFGHFVLRSTGFPYEWMKELKMQQTFDLIFQNAKWEQVESKFNQELAIKREQLKAYFDSEDFRQAVFISNPDMYQHIDRYMKHFQSHSRPSKVKRIEKKLFTYLQRFCGKNESASFFGPLNYGQVEPNIDEYWDGSFIETKDLQKREAFLSYWAVKALAKAVAKENELAPYVPLQIPSWIVVRKEYVVLSSGKRINLPAWMMEIMHYIQETSSCLWELQNHFNHIEAGQLKASLEKLISKGLIHREWIIPSTVVHPLHRLLEQLRELPDSPAKNKWCQALDELASEVTKLANLPIVEKRRSFAHLEETFTKLTGEPSRRGKASLYADRFIYYEDAQGHIQEFRFGKPFIEDLQTKLAGSLNMSAAYGEEIWAYYQELGRNVYEDMQVEARNDEKRQLANSGIPFSSFINKLRQTYPDVPQLPKSSFSNKIEAIIREKGTEQRVVKLTSDQLNVFPSNRSFYSLPDLFLQAENIEALRNGDVQIILAKLHHHLLMHNWMTYFYQEKERLERDLVQLVQKLDHEDGTVLSGLEIMRRNKAYYDYPTTVIEYAEKPDSSKESIKLTDLIVVRNDDGHLELQEKNTSRPIELYVPLADQVHYLPFAMFSKPMLLHVPISSGKHTPRIVIDDVVYQRERWFFYTKQLVDLFHQLQGPLLLKKVEEWRQAEGIPEVVYIKGSDVRKPYWVDFKNYFSLELMQQILLENNEITIEEMLPDPHHLWLKSRKGSHSCELRMSVYKLGIKEVSEHAEGHHHHHH	soluble
MKLTPNFYRDRVCLNVLAGSKDNAREIYAAAEGHVLVGVLSKNYPDVASAVADMREYAALIDNALSVGLGAGDPNQSAMVSEISRQVQPQHVNQVFTGVGTSRALLGQNETVVNGLVSPTGTPGLVKISTGPLSSRAPDGIVPIETAIALLKDMGGSSVKYFPMGGLTCRDEYKAVAEPAPAMISGWNRRAVSIWKTSPRFCTSPLMQV	not soluble
MNKFIAAEAAECIGCHACEIACAVAHNQENWPLSHSDFRPRIHVVGKGQAANPVACHHCNNAPCVTACPVNALTFQSDSVQLDEQKCIGCKRCAIACPFGVVEMVDTIAQKCDLCNQRSSGTQACIEVCPTQALRLMDDKGLQQIKVARQRKTAAGKASSDAQPSRSAALLPVNSRKGADKISASERKTHFGEIYCGLDPQQATYESDRCVYCAEKANCNWHCPLHNAIPDYIRLVQEGKIIEAAELCHQTSSLPEICGRVCPQDRLCEGACTLKDHSGAVSIGNLERYITDTALAMGWRPDVSKVVPRSEKVAVIGAGPAGLGCADILARAGVQVDVFDRHPEIGGMLTFGIPPFKLDKTVLSQRREIFTAMGIDFHLNCEIGRDITFSDLTSEYDAVFIGVGTYGMMRADLPHEDAPGVIQALPFLTAHTRQLMGLPESEEYPLTDVEGKRVVVLGGGDTTMDCLRTSIRLNAASVTCAYRRDEVSMPGSRKEVVNAREEGVEFQFNVQPQYIACDEDGRLTAVGLIRTAMGEPGPDGRRRPRPVAGSEFELPADVLIMAFGFQAHAMPWLQGSGIKLDKWGLIQTGDVGYLPTQTHLKKVFAGGDAVHGADLVVTAMAAGRQAARDMLTLFDTKAS	not soluble
PRGSHMAEYLRLPHSLAMIRLCNPPVNAVSPTVIREVRNGLQKAGSDHTVKAIVICGANGNFCAGADIHGFSAFTPGLALGSLVDEIQRYQKPVLAAIQGVALGGGLELALGCHYRIANAKARVGLPEVTLGILPGARGTQLLPRVVGVPVALDLITSGKYLSADEALRLGILDAVVKSDPVEEAIKFAQKIIDKPIEPRRIFNKPVPSLPNMDSVFAEAIAKVRKQYPGVLAPETCVRSIQASVKHPYEVGIKEEEKLFMYLRASGQAKALQYAFFAEKSANKWSTPSGASWKTASAQPVSSVGVLGLGTMGRGIAISFARVGISVVAVESDPKQLDAAKKIITFTLEKEASRAHQNGQASAKPKLRFSSSTKELSTVDLVVEAVFEDMNLKKKVFAELSALCKPGAFLCTNTSALNVDDIASSTDRPQLVIGTHFFSPAHVMRLLEVIPSRYSSPTTIATVMSLSKKIGKIGVVVGNCYGFVGNRMLAPYYNQGFFLLEEGSKPEDVDGVLEEFGFKMGPFRVSDLAGLDVGWKIRKGQGLTGPSLPPGTPVRKRGNSRYSPLGDMLCEAGRFGQKTGKGWYQYDKPLGRIHKPDPWLSTFLSQYREVHHIEQRTISKEEILERCLYSLINEAFRILEEGMAARPEHIDVIYLHGYGWPRHKGGPMFYAASVGLPTVLEKLQKYYRQNPDIPQLEPSDYLRRLVAQGSPPLKEWQSLAGPHGSKL	soluble
MGSDKIHHHHHHMIIMIPFKSMRDQAGLNRQHIFDLARLPPDLLAPLDLGQHERQLILLGHAGRLLWERVQKHATDPVHPIDSYTIGVVEQWAALALPHTRIRFVYPRGLPANRHVGLQRLGTLAGWHHPSPFMVGIDARWGSWFAYRAAIIVDSELPASPVEDHGHPCVDCTAKPCIGTCPASALDSGTMDMNACTASGSLKPRPARTAAWRDRPAL	not soluble
MEFIGDTRIVIINPLGAKKICRLTFEQIKVIYQEVKTHFENYRIIFTGLPQDLLTIPILEIETLPFDEFIYTVALTKYSDFVISVDTALVHIAAAYHKPTLAFYPNSRTPEYPSHLIWSPNHHKSIQIVSPTYTVKDIDTETLTNSVKRLSCIDKKLEHHHHHH	soluble
MGSDKIHHHHHHMEERVVVEGLTGGYRPNKPVLHDLHLKIRANELVGLIGLNGAGKSTTIKHILGLMEPHKGSVMINGNTITTDRETYRRSLAYIPETPILYEELTLWEHMELTALAYGIERKAFEERSKLLLDEFRMTKMKHWYPSHFSKGMRQKVMIICAFLIDPPVYIVDEPIVGLDPIGIQSFLQLLATKKKNGAAVLMSTHILATAERYCDRFIILNRGRIVLEGTLESMRAELNMPDATLDDIYIEMTKEESQ	not soluble
MSRPAASLGLMRMIEAVPDRLDGSPRQLRRFWSDEFKETAVEQACQPGVNMSAVARQIGILPSQLYRWRRELLASDKPGEAPAAVDPQSVAPDANPVVEIVIDGIVVRADRHIEEAHLQRVIRAVRSALEHHHHHH	soluble
GMDDQSGDQMRPELTMPPAEAEALRMAYEEAEVILEYGSGGSTVVAAELPGKHVTSVESDRAWARMMKAWLAANPPAEGTEVNIVWTDIGPTGDWGHPVSDAKWRSYPDYPLAVWRTEGFRHPDVVLVDGRFRVGCALATAFSITRPVTLLFDDYSQRRWQHQVEEFLGAPLMIGRLAAFQVEPQPIPPGSLMQLIRTMTSP	soluble
MGSDKIHHHHHHKDAAYPRAEAQTLDLAQKAIAIRSVRGEGNRTIDVANLFRDALLKGGWQVGDIEVTPVDDTAYIIATWKGSDPSLKPVVISGHMDVVEAKREDWERDPFVPVVENGILYGRGASDMKFDGALALSTLIELRRQGFKPKRTIVIEFSGDEETTMKTSAIIAEKLKNAELVINVDGGGGTLDEATGKPLYWTWQGAEKTYADYRLEVTNPGGHSSAPRPDNAIVQLSQALVKVGAYRFKAEQNDITRGYFEKAAPFTDRPEIAAAMRAFAANPADEKALATLRADPSMVGKVGTTCVPTMLGGGHAENALPQRAFANINCRIFPGHTKEAIMAELAQVVGDPAVKISDVTEGSVASPASPLRPDLMKAVTRAMTKAYPKVPLIPSQASGASDSMWFRALGVPSYGLSPSFSKDSEDFSHGLNERTRLSNIRPGITYYLTLITDLTK	not soluble
MSDDHHDDEHFHTGDSGAAATFPKQCSALRKNEHVMIKGRPCKIVEMSTSKTGKHGHAKVHMVAIDIFTSKKLEDICPSTHNMDVPVVKRREYLLMAIDDGYCSLMDPESCEQKDDLKLPDTELGQQIRDAYEKDEGSVLVQVVSAIGEEAILGWKVSTKE	not soluble
MSLSDKIRIGMTVSSTGSFVLASQSGVRGVEVWVDDVNRRGGIEIKGKKYPVELVKLDDRSDKQMVTRVYERLIVDEKVDLVFAPFGSTLTAAAGTVTERLGKYMMVWSAASDDLYKQGFKYMVSGTQMPVSAMLRAPMALAGKLGVKKAAILYSDEPFPAGLADGGRAQAAKNGIDVVLYEKYPKGQKDFSTLLQKAKAAGADALVPTSYEGDLISMTRQMKQLDINFPYTFMVYASTPQFQAIGADSNYIFSHTNYHPAINWKVNAGLTREQFGKAYDTLFPKAEFPPDFQTALAYGAGALTEEIIKKAGATDAAALKQASMDLSDKVTVMAGPYAIDETGKQLQMPFPVVQLLPGKGMVPVYPEDVAVEKAVYPAPAWNKAKGIITITTDPNSSSVDKLAAALEHHHHHH	soluble
